Data as given in patent publication US20150362492A1 (DYAX, published 2015).

Biological target: T1, purified human plasma kallikrein (active form), biotinylated (human, UniProt P03952 20-390; P03952 391-638, biotinylated with Sulfo-NHS-LC-Biotin (sites not given))
T1 construct: The protein was captured on avidin-coated plates through biotin; also called pKal; PKal
Experiment: complex ELISA: biotinylated kallikrein captured on avidin plate, incubated with plasma, bound C1-INH detected with polyclonal anti-C1-INH and alkaline phosphatase secondary antibody
Description: Immulon 2HB plates were coated with 5 μg/ml avidin in coating buffer (100 μl) overnight at 4° C. Plates were washed three times using PBS-Tween (200 μl/each). Subsequently, 200 μl 1% BSA in PBS was added to block the unused sites. The plates were incubated at 37° C. for 1 hr. Plates were washed three times using PBS-Tween (200 μl/each). Added to the plates were: 25 μl standards or samples, 25 μl biotinylated […] and/or biotinylated kallikrein (1 μg/ml), and 50 μl binding buffer. Plates were mixed and incubated at 37° C. for 1 hour. Plates were washed three times using PBS-Tween (200 μl/each). A polyclonal antibody to C1-INH was added and incubated at room temperature for 1 hour. Plates were washed three times using PBS-Tween (200 μl/each). Alkaline phosphatase conjugated secondary antibody was added and incubated at room temperature for 1 hour. […] The OD at 450 nm was read and calculations were performed using the standard curve.
One consideration in development of the assay was that it is beneficial to employ an assay that quantitates functional C1-INH based on an enzyme that is requisite for bradykinin formation. […] Nevertheless, complex ELISA assays detecting functional interaction between C1-INH and either Factor XIIa or kallikrein worked well since only that fraction of kallikrein (˜60%) that is inhibited by C1-INH is detected.

T1 sequence (P03952 20-390, chain 1 of 2): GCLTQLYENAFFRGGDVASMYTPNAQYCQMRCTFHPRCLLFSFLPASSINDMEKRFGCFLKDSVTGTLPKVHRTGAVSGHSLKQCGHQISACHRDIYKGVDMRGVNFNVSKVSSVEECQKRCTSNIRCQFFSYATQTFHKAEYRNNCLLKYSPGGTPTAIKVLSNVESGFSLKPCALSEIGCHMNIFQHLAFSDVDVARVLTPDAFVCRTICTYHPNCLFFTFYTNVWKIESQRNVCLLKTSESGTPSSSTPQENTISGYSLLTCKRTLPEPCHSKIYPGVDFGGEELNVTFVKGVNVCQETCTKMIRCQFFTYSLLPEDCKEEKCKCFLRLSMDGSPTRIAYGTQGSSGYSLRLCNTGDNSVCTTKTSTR
T1 sequence (P03952 391-638, chain 2 of 2): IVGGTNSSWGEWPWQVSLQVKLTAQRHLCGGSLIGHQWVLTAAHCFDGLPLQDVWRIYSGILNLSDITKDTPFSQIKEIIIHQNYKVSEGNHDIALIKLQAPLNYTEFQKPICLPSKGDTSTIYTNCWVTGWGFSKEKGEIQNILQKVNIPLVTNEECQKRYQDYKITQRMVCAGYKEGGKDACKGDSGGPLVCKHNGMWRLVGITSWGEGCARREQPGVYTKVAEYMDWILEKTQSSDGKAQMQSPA

B1: plasma protease C1 inhibitor (C1-INH) in plasma of healthy (normal) controls (other)
chain: NPNATSSSSQDPESLQDRGEGKVATTVISKMLFVEPILEVSSLPTTNSTTNSATKITANTTDEPTTQPTTEPTTQPTIQPTQPTTQLPTDSPTQPTTGSFCPGPVTLCSDLESHSTEAVLGDALVDFSLKLYHAFSAMKKVETNMAFSPFSIASLLTQVLLGAGENTKTNLESILSYPKDFTCVHQALKGFTTKGVTSVSQIFHSPDLAIRDTFVNASRTLYSSSPRVLSNNSDANLELINTWVAKNTNNKISRLLDSLPSDTRLVLLNAIYLSAKWKTTFDPKKTRMEPFHFKNSVIKVPMMNSKKYPVAHFIDQTLKAKVGQLQLSHNLSLVILVPQNLKHRLEDMEQALSPSVFKAIMEKLEMSKFQPTLLTLPRIKVTTSQDMLSIMEKLEFFDFSYDLNLCGLTEDPDLQVSAMQHQTVLELTETGVEAAAASAISVARTLLVFEVQQPFLFVLWDQQHKFPVFMGRVYDPRA
notes: Native C1-INH as present in citrated plasma of healthy human controls (purified C1-INH in buffer was used for the standard curve); also called functional C1-INH
  binding result: binds
